Protein stability index data for 94 variants are collected here from the supplement of paper PMC10567573.

B1: KRT71 (parent)
chain: ELRNVQDVVEDYKKRYEEEINKRT
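Note: lentivirally expressed fusions sorted by FACS into six bins by GFP to DsRed ratio, PSI derived from sequencing read proportions per bin multiplied by bin number.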

In this data set the parent is B1. Put plainly: protein stability index of a GFP-peptide fusion (GPS, HEK-293T) (PSI 1-6); higher = more stable. To be noted: c terminus: a fixed tail appended.
With ELRNVQDVVEDYKKRYAEEINKRT [E17A], the protein stability index came to 2.84.
Take ELRNVQDVVEDYKKRYTEEINKRT [E17T]: the protein stability index is 3.45.
To ELRNVQDVVEDYKKRYLEEINKRT [E17L] belongs 4.43.
To ELRNVQDVVEDYKKRYVEEINKRT [E17V] belongs 3.93; to ELRNVQDVVEDYKKRYCEEINKRT [E17C], 3.24.
To ELRIVQDVVEDYKKRYEEEINKRT [N4I] belongs 4.37.
Consider ELRPVQDVVEDYKKRYEEEINKRT [N4P], for which the protein stability index was found to be 4.67.
To ELRTVQDVVEDYKKRYEEEINKRT [N4T] belongs 4.08.
To ELRCVQDVVEDYKKRYEEEINKRT [N4C] belongs 3.9.
For ELREVQDVVEDYKKRYEEEINKRT [N4E] the value was 4.45; for ELRGVQDVVEDYKKRYEEEINKRT [N4G], 3.65; for ELRNVQDVVEDYKKRYEEEINWRT [K22W], 3.9.
As to ELRNVQDVVEDYKKRYEEEINDRT [K22D], the protein stability index stood at 3.57.
For ELRNVQDVVEDYKKRYEEEINMRT [K22M] the value was 3.92; for ELRNVQDVVEDYKKRYEEEINIRT [K22I], 3.28; for ELRNVQDVVEDYKKRYEEEINGRT [K22G], 3.27.
For ELRNVQDVVEDYKKRYEEEINCRT [K22C] the value was 4.19; for ELRNVQDVVEDYKKRYEEEINNRT [K22N], 4.11.
For ELRNVQDVVEDYKKRYEEEINFRT [K22F] the value was 4.47; for ELRNVQDVVEDYKKRYEEEINRRT [K22R], 4.21.
Regarding ELRNVQDVVEDYGKRYEEEINKRT [K13G], the protein stability index turned out to be 3.93.
For ELRNVQDVVEDYNKRYEEEINKRT [K13N] the value was 3.34; for ELRNVQDVVEDYPKRYEEEINKRT [K13P], 2.97.
For the variant ELRNVQDVVEDYQKRYEEEINKRT [K13Q], the protein stability index was 3.71.
For ELRNVQDVVEDYSKRYEEEINKRT [K13S] the value was 3.51; for ELRNVQDVVEDYFKRYEEEINKRT [K13F], 4.07.
To ELRNVQDVVEDYMKRYEEEINKRT [K13M] belongs 3.12; to ELRNVQDVVEDYYKRYEEEINKRT [K13Y], 3.2; to ELRNVQDVVEDYCKRYEEEINKRT [K13C], 2.71.
For ELRNVQDVVEDYRKRYEEEINKRT [K13R] the value was 4.62; for ELRNVQDVVEDYKKRPEEEINKRT [Y16P], 3.82.
Take ELRNVQDVVEDYKKRAEEEINKRT [Y16A]: the protein stability index was found to be 4.43.
To ELRNVQDVVEDYKKRCEEEINKRT [Y16C] belongs 3.51; to ELRNVQDVVEDYKKRFEEEINKRT [Y16F], 2.96; to ELRNVQDVVEDYKKRREEEINKRT [Y16R], 3.59.
Regarding ELRNVQDVVEDYKKRGEEEINKRT [Y16G], the protein stability index turned out to be 2.71.
To ELRNVQDVVEDYKKRKEEEINKRT [Y16K] belongs 3.75.
For ELRNVQDVVEDYKKRYEENINKRT [E19N] the value was 2.71; for ELRNVQDVVEDYKKRYEEAINKRT [E19A], 3.94.
To ELRNVQDVVEDYKKRYEEHINKRT [E19H] belongs 3.73.
Take ELRNVQDVVEDYKKRYEERINKRT [E19R]: the protein stability index was 4.11.
To ELRNVQDVVEDYKKRYEEFINKRT [E19F] belongs 3.36.
For ELRNVQDVVEDYKKRYEETINKRT [E19T] the value was 4.16; for ELRNVQDVVEDYKKRYEEDINKRT [E19D], 3.24; for ELRNVQDVVEDYKKRYEESINKRT [E19S], 3.69.
To ELRNVQDVVEDYKKRYEEMINKRT [E19M] belongs 2.73; to ELRNVQDVVEDYKKRYEEVINKRT [E19V], 3.48.
Consider ELRNVQDVVEDYKKRYEEQINKRT [E19Q], for which the protein stability index worked out at 2.54.
For ELRNVQDVVEDYKKRYEEYINKRT [E19Y] the value was 2.88; for ELRNVQMVVEDYKKRYEEEINKRT [D7M], 3.35.
For ELRNVQHVVEDYKKRYEEEINKRT [D7H] the value was 3.13.
ELRNVQCVVEDYKKRYEEEINKRT [D7C]: the protein stability index turned out to be 3.35.
To ELRNVQVVVEDYKKRYEEEINKRT [D7V] belongs 3.23.
To ELRNVQKVVEDYKKRYEEEINKRT [D7K] belongs 3.28; to ELRNVQAVVEDYKKRYEEEINKRT [D7A], 3.68; to ELRNVQSVVEDYKKRYEEEINKRT [D7S], 3.6.
For the variant ELRNVQEVVEDYKKRYEEEINKRT [D7E], the protein stability index turned out to be 3.1.
For ELWNVQDVVEDYKKRYEEEINKRT [R3W] the value was 3.47; for ELYNVQDVVEDYKKRYEEEINKRT [R3Y], 3.86.
To ELMNVQDVVEDYKKRYEEEINKRT [R3M] belongs 4.14.
In the case of ELLNVQDVVEDYKKRYEEEINKRT [R3L], the protein stability index is 2.37.
Consider ELFNVQDVVEDYKKRYEEEINKRT [R3F], for which the protein stability index worked out at 4.32.
For ELPNVQDVVEDYKKRYEEEINKRT [R3P] the value was 4.1; for NLRNVQDVVEDYKKRYEEEINKRT [E1N], 3.49; for LLRNVQDVVEDYKKRYEEEINKRT [E1L], 3.9.
For the variant FLRNVQDVVEDYKKRYEEEINKRT [E1F], the protein stability index is 4.14.
Take CLRNVQDVVEDYKKRYEEEINKRT [E1C]: the protein stability index was determined as 2.23.
With SLRNVQDVVEDYKKRYEEEINKRT [E1S], the protein stability index stood at 4.07.
For ELRNVQDVVEDYKKRYELEINKRT [E18L] the value was 2.91; for ELRNVQDVVEDYKKRYEKEINKRT [E18K], 3.03; for ELRNVQDVVEDYKKRYEGEINKRT [E18G], 3.16.
For ELRNVQDVVEDYKKRYEIEINKRT [E18I] the value was 3.07; for ELRNVQDVVETYKKRYEEEINKRT [D11T], 3.63; for ELRNVQDVVEMYKKRYEEEINKRT [D11M], 3.31.
To ELRNVQDVVESYKKRYEEEINKRT [D11S] belongs 3.69; to ELRNVQDVVEAYKKRYEEEINKRT [D11A], 3.55; to ELRNVQDVVEFYKKRYEEEINKRT [D11F], 3.01.
Take ELRNVQDVVECYKKRYEEEINKRT [D11C]: the protein stability index stood at 3.98.
For ELRNVQDVVEHYKKRYEEEINKRT [D11H] the value was 3.77.
For the variant ELRNVQDVVERYKKRYEEEINKRT [D11R], the protein stability index worked out at 3.29.
Regarding ELRNVQDVVEIYKKRYEEEINKRT [D11I], the protein stability index came out at 2.82.
To ELRNVQDVFEDYKKRYEEEINKRT [V9F] belongs 3.49.
For ELRNVQDVAEDYKKRYEEEINKRT [V9A] the value was 3.69; for ELRNVQDVSEDYKKRYEEEINKRT [V9S], 4.35; for ELRNVQDVYEDYKKRYEEEINKRT [V9Y], 3.62.
For ELRNVQDVGEDYKKRYEEEINKRT [V9G] the value was 4.2; for ELRNVQDVPEDYKKRYEEEINKRT [V9P], 4.21.
As for ELRNVQDVLEDYKKRYEEEINKRT [V9L], the protein stability index came out at 3.03.
As for ELRNVQDVNEDYKKRYEEEINKRT [V9N], the protein stability index worked out at 3.24.
For ELRNVQDVVEDYKKRYEEEIIKRT [N21I] the value was 1.94; for ELRNVQDVVEDYKKRYEEEIMKRT [N21M], 2.79; for ELRNVQDVVEDYKKRYEEEIRKRT [N21R], 3.92.
As for ELRNVQDVVEDYKKRYEEEIKKRT [N21K], the protein stability index is 4.54.
Regarding ELRNVQDVVEDYKKRYEEEIGKRT [N21G], the protein stability index worked out at 3.77.
